{
  "source": "patent US11464867B2",
  "about": "“Multimeric elastin-like polypeptides” (University of Southern California, priority 2018, dated 2022)",
  "key": {"[1]": {"assay": "Phase transition temperature by optical density (UV-Vis, 350 nm) versus temperature", "format": "physicochemical", "settings": "25 μM; Table 5", "protocol": "The temperature with the maximum positive slope was defined as the phase transition temperature for each condition. (FIG. 2B) The concentration-temperature phase diagram was determined for both ELPs, and fit to the following equation: Tt=b−m Log10[CELP].\nBoth ELPs at different concentrations (5 μM to 100 μM) were subject to a precisely controlled temperature increase from 25 to 75° C. at a rate of 1° C./min. The Tt of ELPs is defined as the temperature at which the first derivative of the optical density with respect to the temperature reaches a maximum."}, "[2]": {"assay": "ATRA encapsulation in 4PA, two phase method, HPLC", "format": "physicochemical", "settings": "theoretical maximum 4", "excerpt": "FIG. 21: SDS PAGE was used to resolve the purified 4PA fusion protein. To formulate ATRA-loaded 4PA, a two phase encapsulation method was adopted. After removing undissolved drug, HPLC was used to quantify 4PA and ATRA concentrations. Encapsulation ratio, defined as CATRA/C4PA was 2.7, theoretical maximum being 4."}, "BT-474 orthotopic tumors": {"test_system": "BT-474 orthotopic tumors", "assay": "Orthotopic BT-474 tumors in nude mice", "format": "in vivo", "settings": "1 mg/kg every other day for 4 weeks", "excerpt": "FIGS. 25A-25B: show results of administration of FAF formulations when tested for efficacy and safety in nude mice bearing orthotopic tumors of BT-474 cell line. Oral Eve at the same drug dose served as a clinically relevant control.\nAccounting for nearly 40,000 deaths per year, breast cancer is the second deadliest cancer affecting American women. Everolimus (Eve), an analog of Rapamycin is approved to treat HR+/HER2− subtype in combination with exemestane. Currently administered as an oral formulation, Eve suffers from poor physico-chemical properties and toxicity issues like Rapamycin. Novel FAF formulations were tested for efficacy and safety in nude mice bearing orthotopic tumors of BT-474 cell line. Being a HR+ cell line, BT-474 represents nearly 80% of clinically diagnosed breast cancer. Oral Eve at the same drug dose served as a clinically relevant control. […] This is presumably a result of Eve's poor oral bioavailability."}, "[3]": {"test_system": "HR+/HER2− breast cancer patients", "settings": "in combination with exemestane; cited from earlier work"}, "male NOD mice": {"test_system": "male NOD mice", "assay": "Lymphocytic infiltration of the lacrimal gland in male NOD mice (Sjögren's syndrome model)", "format": "in vivo", "settings": "SC 1.0 mg Rapa/kg every other day for 2 weeks", "protocol": "FIGS. 23A-23C: FAF-Rapa reduces lymphocytic infiltration in the LG of male NOD mice, FIG. 23A: identity, purity and fluorescence of FAF, FAF-Rapa and rhodamine-labeled FAF-Rapa (Rho-FAF-Rapa) were analyzed by Comassie blue staining and fluorescence imaging of SDS-PAGE. FIG. 23B: One LG from each mouse was collected at the conclusion of the study. Sections from 25th, 50th and 75th percentile sections from each LG were quantified by a blinded observer to determine the average percentage area of infiltrate per gland. Glands from 4 treatment groups (n=15) were compared. Inflamed LG show areas of purple nuclear staining, which indicate foci of infiltrating lymphocytes (outlined in blue). Severe lymphocytic infiltration was reduced by FAF-Rapa (middle panel). Scale bar represents 200 μm. FIG. 23C: The percent area of infiltration was calculated using ImageJ (mean±SD). A Kruskal-Wallis non-parametric test was used to compare groups.\nSS is a chronic autoimmune disease that affects about 4 million people in the US. Lymphocytic infiltration and inflammation in the exocrine glands, mainly lacrimal gland (LG) and salivary gland causes severe forms of dry eyes and dry mouth. […] Following this, the LG from all mice were sectioned, stained and lymphocytic infiltration was quantified."}, "MDA-MB-468 cells": {"test_system": "MDA-MB-468 cells", "assay": "Split luciferase reporter for cytosolic Rapa", "format": "cell-based", "excerpt": "FIGS. 22A-22B: FAF delays the access of Rapa to the cytosol in a manner consistent with macropinocytosis. FIG. 22A: MDA-VB-468 cells were transfected with a split luciferase reporter that enables the specific detection of Rapa within the cytosol. […] Free Rapa luminescence kinetics were unaffected by amiloride. (Mean±95% CI, n=6).\nTo understand drug release, cells were engineered to express a luciferase reporter for cytosolic Rapamycin. […] This is evidence that FAF dominates the intracellular delivery of rapalogues."}, "MDA-MB-468 cell line": {"test_system": "MDA-MB-468 cell line", "assay": "Cellular uptake of FAF", "format": "cell-based", "settings": "concentrations up to 100 μM"}},
  "data": [
    {"compound": "4PA: 4 Pin1 domains linked by ELP A24, SEQ ID NO: 15", "values": [
      {"measurement": "Transition temperature at 25 μM", "setting": "[1]", "value": 52.8, "unit": "°C"},
      {"measurement": "Encapsulation ratio, CATRA/C4PA", "setting": "[2]", "value": 2.7}
    ]},
    {"compound": "CO[C@H]1C[C@@H]2CC[C@@H](C)[C@@](O)(O2)C(=O)C(=O)N2CCCC[C@H]2C(=O)O[C@H]([C@H](C)C[C@@H]2CC[C@@H](OCCO)[C@H](OC)C2)CC(=O)[C@H](C)/C=C(\\C)[C@@H](O)[C@@H](OC)C(=O)[C@H](C)C[C@H](C)/C=C/C=C/C=C/1C", "note": "[Eve, Everolimus]", "values": [
      {"measurement": "tumor growth compared to PBS treated mice", "setting": "BT-474 orthotopic tumors", "value": "not statistically significant"},
      {"measurement": "patients with adverse events necessitating discontinuation of treatment", "setting": "[3]", "value": "10 % of patients"},
      {"measurement": "patients with adverse events necessitating dose reduction", "setting": "[3]", "value": "75 % of patients"}
    ]},
    {"compound": "CO[C@H]1C[C@@H]2CC[C@@H](C)[C@@](O)(O2)C(=O)C(=O)N2CCCC[C@H]2C(=O)O[C@H]([C@H](C)C[C@@H]2CC[C@@H](O)[C@H](OC)C2)CC(=O)[C@H](C)/C=C(\\C)[C@@H](O)[C@@H](OC)C(=O)[C@H](C)C[C@H](C)/C=C/C=C/C=C/1C", "note": "[Rapa, Rapamycin]", "values": [
      {"measurement": "suppression of lymphocytic infiltration compared to vehicle", "setting": "male NOD mice", "value": 2.7, "unit": "fold"}
    ]},
    {"compound": "FAF: FKBP fused to each terminus of ELP A192, SEQ ID NO: 25", "values": [
      {"measurement": "delay of cytosolic access of Rapa versus free drug", "setting": "MDA-MB-468 cells", "value": "about a half-hour"},
      {"measurement": "effect of amiloride on cytosolic detection of Rapa", "setting": "MDA-MB-468 cells; macropinocytosis inhibitor amiloride added", "value": "completely suppressed"},
      {"measurement": "Transition temperature at 25 μM", "setting": "[1]", "value": 55.1, "unit": "°C"},
      {"measurement": "MAT", "setting": "SC, Non-compartment", "value": 9.6, "unit": "h"},
      {"measurement": "elimination half-life", "setting": "mouse, in vivo, iv", "value": "about 7 hrs"},
      {"measurement": "MRT", "setting": "mouse, in vivo, sc", "value": 20.3, "unit": "h"},
      {"measurement": "Tmax", "setting": "mouse, in vivo, sc", "value": 12, "unit": "h"},
      {"measurement": "saturation of cellular uptake", "setting": "MDA-MB-468 cell line", "value": "no dose-dependent saturation"}
    ]}
  ]
}
